Source: patent US20130129701, “Methods and Compositions for Sequence Specific RNA Endonucleases” (published 2013)

Key:
[1] = target: T1, PUF-R6(SYxxR) purified (Homo sapiens, UniProt Q14671 Q14671:828-1176, N1043S/Q1047R); assay: structure; PDB 2yjy
T1 sequence: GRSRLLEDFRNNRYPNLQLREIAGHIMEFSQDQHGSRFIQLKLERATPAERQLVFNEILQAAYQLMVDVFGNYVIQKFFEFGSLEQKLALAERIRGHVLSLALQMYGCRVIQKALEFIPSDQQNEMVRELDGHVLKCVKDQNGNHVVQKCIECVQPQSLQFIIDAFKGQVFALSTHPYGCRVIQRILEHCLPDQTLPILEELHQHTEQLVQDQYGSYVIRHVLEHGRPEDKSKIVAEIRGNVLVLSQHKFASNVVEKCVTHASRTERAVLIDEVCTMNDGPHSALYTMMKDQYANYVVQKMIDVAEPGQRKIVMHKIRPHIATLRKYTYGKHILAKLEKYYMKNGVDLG
Experimental: Crystals of PUF-R6(SYxxR) mutant and C3 RNA (5′-[…]) were grown by sitting drop vapor diffusion. RNA oligonucleotide was obtained from Dharmacon (Lafayette, Colo.). The protein-RNA complex was prepared by mixing a 1:1.1 molar ratio of purified protein (3.5 mg/ml) and RNA in a buffer containing 20 mM Tris-HCl, pH 7.5; 100 mM NaCl; and 1 mM DTT. One μl of complex solution was added to 1 μl of a well solution containing 30% PEG 3350, 0.2M ammonium tartrate dibasic, and 0.1M bis-Tris, pH 5.5. Crystals were flash frozen after adding an equal volume of cryoprotectant solution (32% PEG 3350, 20% ethylene glycol) to the drop. Diffraction data were collected at the SER-CAT beamline ID-22, Advanced Photon Source at wavelength 1.0 Å and −180° C. All data sets were indexed, integrated, and scaled with the HKL2000 suite (21). The structure was determined by molecular replacement using the structure of human Pumilio1 (PDB ID: 1M8Y) as a search model with PHASER (22). Two complexes are present in the asymmetric unit. Iterative model building was performed with COOT (23), and the resulting models were refined with PHENIX (24). All Phi-Psi angles are within allowable regions of the Ramachandran plot. The atomic coordinates and structure factors have been deposited in the Protein Data Bank (PDB ID: 2yjy).

[2] = target: T1, PUF-R6(SYxxR) purified; assay: EMSA; 0.2 uM protein, 1 nM biotinylated RNA, 1 mM MgCl2, room temperature
Experimental: Protein concentration was determined by Bradford assay. RNAs were generated by in vitro transcription and purified on denaturing gels. 50 pmol of RNAs were labeled at the 3′ end with biotinylated cytidine bisphosphate using T4 RNA ligase following manufacturer's directions (Thermo Scientific Pierce RNA 3′ End Biotinylation Kit). In each sample, 20 fmol of labeled RNA (1 nM) and 4 pmol of proteins (0.2 μM) were incubated in binding buffer (10 mM HEPES, pH 7.3, 20 mM KCl, 1 mM MgCl₂, 1 mM DTT, and 0.1 g/L tRNA) for 1 hour at room temperature. The binding reactions were separated by electrophoresis on 6% nondenaturing PAGE run with 1×TBE at 4° C., transferred to nylon membranes, and crosslinked to the membrane by UV. Biotin-labeled RNA was detected by chemiluminescence using the Thermo Scientific LightShift Chemiluminescent RNA EMSA Kit following manufacturer's directions.

| Binder | binding result [1] | binding result [2] |
| --- | --- | --- |
| AUUGCAUAUA (ssRNA) [C3 RNA crystallization 10-mer] | binds |  |
| UGCAUAUA (ssRNA) [C3 RNA] |  | binds |
